Test results published in patent US20210324003A1.

How the values were obtained:
[1] = molecular target: MT145K SOSIP.664 trimer (MT145 Q171K); experiment: ELISA; parameters: unit not given beside the values
MT145K gp120 monomer = experiment: ELISA; parameters: unit not given beside the values
[2] = molecular target: CRF250 SOSIP trimer (HIV-1 (subtype AG)); experiment: method not stated

Substance	EC50 [1]	EC50 (MT145K gp120 monomer)	Kd [2] [nM]
CH01	0.187 ?	10 ?	
CH01 UCA BCR (antibody)			100
PG9		0.792 ?	
